For assay [1], the target named is CCR7 on T2 hybridoma cells. In words: cell-based or functional assay.
The target in assay [2] is CP-MVP recombinant vaults (rat MVP generated in Sf9 cells) (rat) (UniProt Q62667). In words: densitometry of Coomassie stained SDS-PAGE gels of purified vault complexes.

Some results are limits rather than exact numbers.

The results in this text go back to patent US20120213809A1.

Chain of UniProt Q62667 (Q62667 2-861 limits assumed): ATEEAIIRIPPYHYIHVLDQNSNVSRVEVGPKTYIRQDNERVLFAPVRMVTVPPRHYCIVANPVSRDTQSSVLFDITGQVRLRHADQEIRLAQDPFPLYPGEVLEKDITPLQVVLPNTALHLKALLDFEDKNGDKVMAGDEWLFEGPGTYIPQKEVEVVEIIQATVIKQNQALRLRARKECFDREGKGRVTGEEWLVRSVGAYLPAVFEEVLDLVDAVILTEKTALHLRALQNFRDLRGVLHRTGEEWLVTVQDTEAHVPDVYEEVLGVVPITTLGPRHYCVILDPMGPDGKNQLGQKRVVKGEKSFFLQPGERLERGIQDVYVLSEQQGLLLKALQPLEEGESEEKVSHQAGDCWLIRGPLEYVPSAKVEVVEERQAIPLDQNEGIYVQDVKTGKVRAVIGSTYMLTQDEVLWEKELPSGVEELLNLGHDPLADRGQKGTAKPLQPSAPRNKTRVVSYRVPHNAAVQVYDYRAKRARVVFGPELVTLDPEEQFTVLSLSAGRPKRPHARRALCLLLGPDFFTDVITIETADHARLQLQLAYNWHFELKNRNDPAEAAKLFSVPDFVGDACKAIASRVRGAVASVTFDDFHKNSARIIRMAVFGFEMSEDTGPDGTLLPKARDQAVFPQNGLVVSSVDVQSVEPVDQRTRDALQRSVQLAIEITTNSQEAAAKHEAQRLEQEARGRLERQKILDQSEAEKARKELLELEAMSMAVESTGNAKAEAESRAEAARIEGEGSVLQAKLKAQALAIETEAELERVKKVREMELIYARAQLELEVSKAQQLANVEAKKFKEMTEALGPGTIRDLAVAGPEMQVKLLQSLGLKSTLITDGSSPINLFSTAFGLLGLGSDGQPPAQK
Chain of CCL-21 vault complex (CP-MVP vaults with packaged mouse CCL-21-mCherry-mINT) (chain): as the sequence (Q62667 2-861 limits assumed) above
Chain of CCL-21 vault complex (CP-MVP vaults with packaged mouse CCL-21-mCherry-mINT) (chain, part): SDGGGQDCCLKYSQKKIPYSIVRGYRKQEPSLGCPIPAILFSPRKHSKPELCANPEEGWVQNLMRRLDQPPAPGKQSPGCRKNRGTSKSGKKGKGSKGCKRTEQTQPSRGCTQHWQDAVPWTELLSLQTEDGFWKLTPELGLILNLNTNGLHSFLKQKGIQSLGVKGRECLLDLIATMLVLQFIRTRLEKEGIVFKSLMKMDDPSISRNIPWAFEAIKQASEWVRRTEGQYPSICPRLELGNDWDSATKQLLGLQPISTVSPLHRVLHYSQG

With “CCL-21 vault complex (CP-MVP vaults with packaged mouse CCL-21-mCherry-mINT)”, the % migration of T2 cells (dual-chamber chemotaxis assay) in assay [1] was above 7.5%.
Take “mouse CCL-21-mCherry-mINT fusion protein”: the molecules of CCL-21-mINT protein per vault complex (molecules per vault complex) in assay [2] was in the range of 20 to 30.
For the substance “recombinant CCL-21 (R&D Systems) (ligand)”, the % migration of T2 cells (dual-chamber chemotaxis assay) in assay [1] is below 2.5%.
